From publication doi:10.1101/2020.10.08.20209114 (medRxiv, 2020)

Target: SARS-CoV-2 RBD protein (SARS-CoV-2 (Wuhan-Hu-1, NC_045512), UniProt P0DTC2)
Experiment: BLI

Row | Binder | Kd [nM]
1 | monoclonal antibody 4L12 (antibody, V domains shown) VH: EVQLVESGGGLVQPGGSLRLSCAASGITVSSNYMNWVRQAPGRGLEWVSLLYSGGSTYYADSVKGRFTISRDNSKNTLYLQMNSLRAEDTAVYYCARDLITYGMDVWGQGTTVTVSS VL: AIQLTQSPSSLSASVGDRVTITCRASQGISSYLAWYQQKPGKAPKLLIYAASTLQSGVPSRFSGSGSGTDFTLTISSLQPEDFATYYCQQLNSYPPLTFGGGTKVEIK | 1.49 ± 0.06
2 | monoclonal antibody 7F3 (antibody, V domains shown) VH: EVQLVESGGGLVKPGRSLRLSCTASGFTFGDYAMSWFRQAPGKGLEWVGFIRSKAYGGTTEYAASVKGRFTISRDDSKSIAYLQMNSLKTEDTAVYYCTRDRYARYDILTGLSPAGADYFYYAMDVWGQGTTVTVSS VL: EIVLTQSPATLSLSPGERATLSCRASQSVSSYLAWYQQKPGQAPRLLIYDASNRATGIPARFSGSGSGTDFTLTISSLEPEDFAVYYCQQRSNWPQYTFGQGTKLEIK | 0.69 ± 0.03
